US20040001835A1, “Prevention or treatment of cancer using integrin alphavbeta3 antagonists in combination with other agents” (MedImmune, Inc., priority 2002, published 2004)
pKd: −log10 of the molar value.

Legend:
Rat Integrin αvβ3 (Rat) = Rat Integrin αvβ3 (Rat) (UniProt Q8R2H2); assay: flow cytometry, RG2 rat glioma cells, 0.5 µg antibody per 5x10^5 cells, against isotype matched control
[1] = molecular target: Rabbit Integrin αvβ3 (Rabbit); assay: flow cytometry, VX7 rabbit carcinoma cells, 0.5 µg antibody per 5x10^5 cells, against isotype matched control
[2] = molecular target: Hamster Integrin αvβ3 (Hamster); assay: flow cytometry, CCL-49 hamster melanoma cells, 0.5 µg antibody per 5x10^5 cells, against isotype matched control
[3] = molecular target: human Integrin αVβ3 (human) (UniProt P06756); assay: flow cytometry, HMVEC endothelial cells, 0.5 µg antibody per 5x10^5 cells, against isotype matched control
[4] = molecular target: human Integrin αVβ3 (human) (UniProt P06756); assay: flow cytometry, M21 melanoma cells, 0.5 µg antibody per 5x10^5 cells, against isotype matched control
[5] = molecular target: Rabbit Integrin αvβ3 (Rabbit); assay: binding of 125I-labeled Vitaxin to VX7 rabbit carcinoma cells
[6] = molecular target: Hamster Integrin αvβ3 (Hamster); assay: binding of 125I-labeled Vitaxin to CCL-49 hamster melanoma cells
[7] = molecular target: human Integrin αVβ3 (human) (UniProt P06756); assay: binding of 125I-labeled Vitaxin to HUVEC primary human endothelium
[8] = molecular target: human Integrin αVβ3 (human) (UniProt P06756); assay: binding of 125I-labeled Vitaxin to M21 human melanoma cells
[9] = molecular target: Hamster Integrin αvβ3 (Hamster); assay: binding of 125I-labeled Vitaxin to cell lines
[10] = molecular target: Rabbit Integrin αvβ3 (Rabbit); assay: binding of 125I-labeled Vitaxin to cell lines
[11] = molecular target: Rabbit Integrin αvβ3 (Rabbit); assay: binding of 125I-labeled Vitaxin to RK1 rabbit kidney epithelium cells

Chain of human Integrin αVβ3 (human) (P06756 31-1048, chain 1 of 2): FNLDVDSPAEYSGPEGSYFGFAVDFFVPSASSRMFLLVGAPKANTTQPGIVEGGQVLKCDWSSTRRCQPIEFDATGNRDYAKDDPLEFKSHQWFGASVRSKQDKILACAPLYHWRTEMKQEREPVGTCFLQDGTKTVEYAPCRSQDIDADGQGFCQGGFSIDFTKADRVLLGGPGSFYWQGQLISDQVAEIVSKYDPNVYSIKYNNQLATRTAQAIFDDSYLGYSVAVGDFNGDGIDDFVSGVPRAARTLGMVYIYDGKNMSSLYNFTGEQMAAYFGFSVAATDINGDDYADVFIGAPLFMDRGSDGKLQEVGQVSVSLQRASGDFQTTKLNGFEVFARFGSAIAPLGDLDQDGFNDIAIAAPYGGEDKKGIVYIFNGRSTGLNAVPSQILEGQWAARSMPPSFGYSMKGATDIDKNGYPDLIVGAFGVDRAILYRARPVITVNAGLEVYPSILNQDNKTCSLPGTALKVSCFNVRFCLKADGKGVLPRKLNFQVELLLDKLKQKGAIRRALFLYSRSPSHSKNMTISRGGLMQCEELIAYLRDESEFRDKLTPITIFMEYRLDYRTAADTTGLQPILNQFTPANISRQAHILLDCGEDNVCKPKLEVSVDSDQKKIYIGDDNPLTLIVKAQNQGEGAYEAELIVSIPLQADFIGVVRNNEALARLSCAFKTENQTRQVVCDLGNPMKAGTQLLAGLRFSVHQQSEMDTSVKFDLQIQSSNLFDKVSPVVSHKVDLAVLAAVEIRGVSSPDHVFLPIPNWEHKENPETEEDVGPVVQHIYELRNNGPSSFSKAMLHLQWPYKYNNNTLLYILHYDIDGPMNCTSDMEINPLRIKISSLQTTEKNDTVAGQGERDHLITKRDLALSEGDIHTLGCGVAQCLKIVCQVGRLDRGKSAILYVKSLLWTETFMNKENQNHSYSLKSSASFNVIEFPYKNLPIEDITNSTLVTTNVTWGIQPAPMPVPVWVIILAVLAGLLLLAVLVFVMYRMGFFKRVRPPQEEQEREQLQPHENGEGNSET
Chain of human Integrin αVβ3 (human) (P05106 27-788, chain 2 of 2, further chain): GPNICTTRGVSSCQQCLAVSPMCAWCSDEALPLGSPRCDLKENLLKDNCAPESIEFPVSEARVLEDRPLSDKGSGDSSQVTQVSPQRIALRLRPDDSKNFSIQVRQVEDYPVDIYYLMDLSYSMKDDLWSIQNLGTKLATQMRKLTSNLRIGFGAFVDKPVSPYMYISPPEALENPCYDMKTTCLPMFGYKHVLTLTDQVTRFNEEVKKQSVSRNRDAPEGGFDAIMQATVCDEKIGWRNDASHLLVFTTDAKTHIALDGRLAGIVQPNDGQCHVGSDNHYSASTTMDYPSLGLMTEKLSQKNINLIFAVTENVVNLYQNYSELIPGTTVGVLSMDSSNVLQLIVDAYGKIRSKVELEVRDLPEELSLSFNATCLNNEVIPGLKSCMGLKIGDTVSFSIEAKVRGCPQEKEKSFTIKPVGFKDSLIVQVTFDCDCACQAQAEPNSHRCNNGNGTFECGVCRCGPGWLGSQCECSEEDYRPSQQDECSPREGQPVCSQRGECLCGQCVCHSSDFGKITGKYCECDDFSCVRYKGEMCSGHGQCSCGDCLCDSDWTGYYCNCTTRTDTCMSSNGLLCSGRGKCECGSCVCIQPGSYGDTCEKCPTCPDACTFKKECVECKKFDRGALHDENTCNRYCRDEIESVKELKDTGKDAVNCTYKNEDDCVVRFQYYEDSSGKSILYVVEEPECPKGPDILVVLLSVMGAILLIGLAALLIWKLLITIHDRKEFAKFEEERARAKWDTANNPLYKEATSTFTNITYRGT
Chain of Rat Integrin αvβ3 (Rat) (Q8R2H2 26-787): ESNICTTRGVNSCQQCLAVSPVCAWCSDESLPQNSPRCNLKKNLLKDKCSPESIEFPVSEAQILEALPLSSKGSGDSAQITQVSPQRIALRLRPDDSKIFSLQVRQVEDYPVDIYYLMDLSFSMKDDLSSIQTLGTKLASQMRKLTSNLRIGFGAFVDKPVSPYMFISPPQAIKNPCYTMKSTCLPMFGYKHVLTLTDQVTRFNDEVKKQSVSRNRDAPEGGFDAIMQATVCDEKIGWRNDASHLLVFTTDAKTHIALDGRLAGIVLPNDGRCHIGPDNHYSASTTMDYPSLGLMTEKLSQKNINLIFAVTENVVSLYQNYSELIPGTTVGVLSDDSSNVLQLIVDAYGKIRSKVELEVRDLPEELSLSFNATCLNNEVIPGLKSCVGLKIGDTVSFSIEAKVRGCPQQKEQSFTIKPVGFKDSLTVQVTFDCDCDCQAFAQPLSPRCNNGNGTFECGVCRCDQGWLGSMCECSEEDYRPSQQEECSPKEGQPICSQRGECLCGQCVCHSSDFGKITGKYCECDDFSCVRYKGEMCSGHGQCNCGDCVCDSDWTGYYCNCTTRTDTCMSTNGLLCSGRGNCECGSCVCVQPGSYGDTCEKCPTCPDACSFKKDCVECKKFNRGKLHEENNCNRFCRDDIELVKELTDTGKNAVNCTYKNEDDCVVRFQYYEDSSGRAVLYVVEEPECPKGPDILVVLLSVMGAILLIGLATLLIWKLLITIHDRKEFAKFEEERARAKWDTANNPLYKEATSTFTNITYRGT

Substance: LM609, mouse anti-human αVβ3 Integrin mAb (antibody)
- Fold Increase Over Control (mean channel fluorescence) (Rat Integrin αvβ3 (Rat)): 2.3 fold
- Fold Increase Over Control (mean channel fluorescence) [1]: 3 fold
- Fold Increase Over Control (mean channel fluorescence) [2]: 7.2 fold
- Fold Increase Over Control (mean channel fluorescence) [3]: 4.3 fold
- Fold Increase Over Control (mean channel fluorescence) [4]: 65 fold

Substance: F11, mouse anti-rat β3 mAb (antibody)
- Fold Increase Over Control (mean channel fluorescence) (Rat Integrin αvβ3 (Rat)): 11 fold
- Fold Increase Over Control (mean channel fluorescence) [1]: 1 fold
- Fold Increase Over Control (mean channel fluorescence) [4]: 0.99 fold

Substance: Vitaxin® (humanized monoclonal antibody MEDI-522)
- Fold Increase Over Control (mean channel fluorescence) (Rat Integrin αvβ3 (Rat)): 0.95 fold
- Fold Increase Over Control (mean channel fluorescence) [1]: 17 fold
- Fold Increase Over Control (mean channel fluorescence) [2]: 12 fold
- Fold Increase Over Control (mean channel fluorescence) [3]: 8.9 fold
- Binding Sites (binding sites) [5]: 160000
- pKd [5]: 8.05
- pKd [6]: 8.16
- Binding Sites (binding sites) [7]: 81000
- pKd [7]: 8.48
- Binding Sites (binding sites) [8]: 130000
- pKd [8]: 8.66
- fold lower affinity than for human αvβ3 [9]: 2 to 3 fold
- fold lower affinity than for human αvβ3 [10]: 4 to 10 fold
- Binding Sites (binding sites) [11]: 42000
- pKd [11]: 7.64
- Fold Increase Over Control (mean channel fluorescence) [4]: 73 fold
